According to article PMC11661447:

Target: RNA-dependent RNA polymerase (RdRp) of HuNoV GII.4 Sydney strain (human norovirus GII.4 Sydney strain)
Test: SEC + AUC; purified RdRp alone, physiologically relevant conditions (pH 7.5); sedimentation velocity of 10 μM RdRp at 40,000 rpm, 22°C; monomer, dimers and higher-order oligomers

## RNA-dependent RNA polymerase (RdRp) of HuNoV GII.4 Sydney strain (enzyme)
  percent as dimers: 15%
  percent as monomer: 75%
  stoichiometry N: 2
